Data from publication doi:10.1101/2022.02.15.480489 (bioRxiv, 2022).

B1: Ana2-mNG (Ana2 tagged with monomeric NeonGreen at the C-terminus, CRISPR/Cas9 knock-in at the endogenous locus) (natural protein)
chain: MFVPETEDMLPRLAPRPSAAVPMGHTNEIIGPTVPEVSILFGQPPQDPQMQPQQPNHAHQESSPRAAPTFASWKKQMLPRVNFSPILATELGPRTAPSSNSPCSSKEYQVMPRDRNYASDAQQTTNHMNCNAGGYNAEPKQQAYQSRRLSSSSNADVLTICAGTQTDPFNPSPPRKSLPQVVYSDIDVSNLANKSDLAALVSLVESVRHEQQQLRNLCEMILEQQQRAKPEAISKASSTTGTQCDILTTNQAGRRLSPIMQDYIAEEEEPLPPPQARVIPQFPSPRPHPPIAQSTGYRANTPQAKRIPQLAKPNTEKSMVMNELALKYLRQPVDELMKDMRLGASPKSPNPEPLRPIDNIGHAQSPNDISNASYKYLKKYRLLPEEQLEPVCPQSPMAATAPSPHIQLDLENIRNQPKLL
B2: mNG-Ana2 (Ana2 tagged with monomeric NeonGreen at the N-terminus, CRISPR/Cas9 knock-in at the endogenous locus) (natural protein)
chain: B1 chain

Molecular target: the molecule itself
Experiment: fluorescence correlation spectroscopy

Row | Protein | stoichiometry N
1 | B1 | ~2
2 | B2 | ~2
